According to article PMC4805248:

How the values were obtained:
[1] = target: PgMntR C108E variant (Porphyromonas gingivalis W50); test: AUC; sedimentation velocity; 10 or 60 uM protein in TBS (50 mM Tris-Cl, 150 mM NaCl, pH 7.5), 20 C, 40,000 rpm; without divalent metal, also with Mn2+ and with 2 mM TCEP; c(s) fit in SEDFIT
[2] = target: PgMntR (Porphyromonas gingivalis manganese transport regulator orthologue, PG1044), recombinant wild type (Porphyromonas gingivalis W50); test: as above
[3] = target: T1, PgMntR (Porphyromonas gingivalis W50 (W83 locus PG1044)) (UniProt Q7MVL0); test: EMSA; settings: EMSA: 1 nM biotinylated DNA, 700-1000 nM protein, 90 mM Bis-Tris borate pH 6.8 (1 mM TCEP, 5 mM DTT) or 10 mM Tris-Cl pH 7.5 or Tris-acetate pH 6.8, 50 mM KCl …
T1 sequence: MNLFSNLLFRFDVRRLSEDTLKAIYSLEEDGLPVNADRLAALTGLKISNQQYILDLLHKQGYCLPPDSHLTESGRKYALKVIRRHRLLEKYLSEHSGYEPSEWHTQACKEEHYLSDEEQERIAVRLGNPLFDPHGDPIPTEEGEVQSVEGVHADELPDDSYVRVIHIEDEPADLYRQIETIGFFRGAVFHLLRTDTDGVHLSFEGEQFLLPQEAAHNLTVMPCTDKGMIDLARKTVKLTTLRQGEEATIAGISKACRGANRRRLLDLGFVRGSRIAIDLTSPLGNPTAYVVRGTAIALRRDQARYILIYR

[4] = target: PgMntR ΔFeoA2 (PgMntR without the final C-terminal FeoA domain) (Porphyromonas gingivalis W50); test: AUC; sedimentation velocity; 10 or 60 uM protein in TBS (50 mM Tris-Cl, 150 mM NaCl, pH 7.5), 20 C, 40,000 rpm; without divalent metal, also with Mn2+ and with 2 mM TCEP; c(s) fit in SEDFIT
[5] = target: PgMntR 4Ala variant (D19A/C108A/E111A/H112A) (Porphyromonas gingivalis W50); test: as above
[6] = target: PgMntR D19M variant (Porphyromonas gingivalis W50); test: as above

PgMntR C108E variant (natural protein)
stoichiometry N [1]: 2

PgMntR (Porphyromonas gingivalis manganese transport regulator orthologue, PG1044), recombinant wild type (natural protein)
stoichiometry N [2]: 2

GATAGCGCAAAAATACTAACTAAACCAATGAATAAACGAGAAATACAATTTATTATTAAAGAGACTGTTGCACAATAACCCTCTCCCCCTCTCATATTGATCAAGACAGACACAAGCATTGATTTGACGAAGAAAGGAGAGCTTCATGCAATCTCTCTGCAAACCTCAAGTAATCTGAAAAACACTTAAGAATCAGCTCTGCGGCAAAAGACTTCAATGAAAGTCCTATAAAATAGTTGCAAACAGCTGATAGTTAGCGCATTGATGGGAGC (double strand) [FB1p (feoB1 promoter)]
binding [3]: no binding

PgMntR ΔFeoA2 (PgMntR without the final C-terminal FeoA domain) (domain or fragment)
stoichiometry N [4]: 2

PgMntR 4Ala variant (D19A/C108A/E111A/H112A) (natural protein)
stoichiometry N [5]: 2

PgMntR D19M variant (natural protein)
stoichiometry N [6]: 2
